Source: patent publication US20210246166A1 (Bayer, published 2021)
Numbered stars: 1 amine (or outer) side, 2 acyl side, 3 side chain; on linkers, the order of the positions; unused ones are H or OH. Bridge positions count the residues as written; N and C are the ends. Square brackets hold non-standard residues; d marks the D form. Primed or numbered codes have the meaning given here. Ends that are not written are not given here. * marks the point of attachment. Phe(2,5-F2) = 2,5-difluorophenylalanine, O=C([C@H](Cc1cc(F)ccc1F)N[*:1])[*:2]; X12 = (S)‑(trifluoromethyl)‑L‑cysteine, O=C([C@H](CSC(F)(F)F)N[*:1])[*:2]; Tranexamic″ = tranexamic acid, NC[C@H]1CC[C@@H](C(=O)*)CC1; Oic = O=C(O)[C@@H]1C[C@@H]2CCCC[C@@H]2N1; tBuAla = CC(C)(C)C[C@H](N)C(=O)O; Gly(cBu) = N[C@H](C(=O)O)C1CCC1; Chg = N[C@H](C(=O)O)C1CCCCC1; Pen = CC(C)(S)[C@H](N)C(=O)O; 3Amb = NCc1cccc(C(=O)O)c1; NMeC = CN[C@@H](CS)C(=O)O; Orn = NCCC[C@H](N)C(=O)O; Abu = CC[C@H](N)C(=O)O; PEG2 = NCCOCCOCCC(=O)O; Sar = CNCC(=O)O

T1: Recombinant human MASP1 enzyme (fragment corresponding to amino acids 297-699, C-terminal His Tag) (human, UniProt P48740 297-699)
T1 sequence: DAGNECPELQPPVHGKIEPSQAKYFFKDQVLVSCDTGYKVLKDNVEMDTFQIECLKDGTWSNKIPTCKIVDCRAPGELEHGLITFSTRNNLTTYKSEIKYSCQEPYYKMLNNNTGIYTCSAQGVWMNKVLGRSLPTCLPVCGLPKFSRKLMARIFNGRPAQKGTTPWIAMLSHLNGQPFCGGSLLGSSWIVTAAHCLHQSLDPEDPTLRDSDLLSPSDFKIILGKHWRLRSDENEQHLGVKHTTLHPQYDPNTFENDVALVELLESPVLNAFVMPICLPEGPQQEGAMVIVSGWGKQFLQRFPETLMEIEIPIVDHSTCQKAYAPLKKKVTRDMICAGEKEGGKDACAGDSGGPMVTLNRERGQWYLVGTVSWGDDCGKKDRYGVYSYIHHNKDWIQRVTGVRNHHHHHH


Assays:
[1] = target: Recombinant human MASP2 enzyme (fragment corresponding to amino acids 297-686, C-terminal His Tag) (human, UniProt O00187 297-686); experiment: cell-based or functional assay
[2] = target: T1, Recombinant human MASP1 enzyme …; experiment: cell-based or functional assay

Sequence of Recombinant human MASP2 enzyme (fragment corresponding to amino acids 297-686, C-terminal His Tag) (O00187 other isoform, or with tags, fused parts or gaps limits assumed): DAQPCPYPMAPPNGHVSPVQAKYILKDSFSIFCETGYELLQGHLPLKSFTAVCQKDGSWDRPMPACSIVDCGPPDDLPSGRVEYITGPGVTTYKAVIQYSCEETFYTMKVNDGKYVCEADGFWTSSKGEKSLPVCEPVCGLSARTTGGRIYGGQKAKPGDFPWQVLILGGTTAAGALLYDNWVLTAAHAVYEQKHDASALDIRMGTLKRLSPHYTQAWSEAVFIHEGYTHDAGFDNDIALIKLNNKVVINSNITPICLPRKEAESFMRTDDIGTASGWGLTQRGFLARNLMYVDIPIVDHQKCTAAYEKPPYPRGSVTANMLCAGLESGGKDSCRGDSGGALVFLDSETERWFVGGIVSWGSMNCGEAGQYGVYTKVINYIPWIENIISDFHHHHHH

Row | human MASP2 IC50 [1] [nM] | human MASP1 IC50 [2] [nM] | Binder
1 | 410 | 6.5 | AICSRSLPPIC[Gly(cBu)]PD-NH2 (disulfide 3-11; N-terminus assumed; SMILES CC[C@H](C)[C@H](NC(=O)[C@H](C)N)C(=O)N[C@H]1CSSC[C@@H](C(=O)N[C@H](C(=O)N2CCC[C@H]2C(=O)N[C@@H](CC(=O)O)C(N)=O)C2CCC2)NC(=O)[C@H]([C@@H](C)CC)NC(=O)[C@@H]2CCCN2C(=O)[C@@H]2CCCN2C(=O)[C@H](CC(C)C)NC(=O)[C@H](CO)NC(=O)[C@H](CCCNC(=N)N)NC(=O)[C@H](CO)NC1=O) [AIC+SRSLPPIC+(Cbg)-PD-NH2]
2 | 13 | 6.5 | {Tranexamic″}-ICSRS[tBuAla]PPI[Pen]IP-{PEG2-NH2} (disulfide 2-10; SMILES CC[C@H](C)[C@@H]1NC(=O)[C@@H]2CCCN2C(=O)[C@@H]2CCCN2C(=O)[C@H](CC(C)(C)C)NC(=O)[C@H](CO)NC(=O)[C@H](CCCNC(=N)N)NC(=O)[C@H](CO)NC(=O)[C@@H](NC(=O)[C@@H](NC(=O)[C@H]2CC[C@@H](CN)CC2)[C@@H](C)CC)CSSC(C)(C)[C@@H](C(=O)N[C@H](C(=O)N2CCC[C@H]2C(=O)NCCOCCOCCC(N)=O)[C@@H](C)CC)NC1=O) [(Tranexamic)-IC+SRS-((tBu)A)-PPI-(Pen)+IP-(PEG1(10 atoms))-NH2]
3 | 63 | 7.6 | AICSRS[Phe(2,5-F2)]PPI[NMeC]IPD-NH2 (disulfide 3-11; N-terminus assumed; SMILES CC[C@H](C)[C@H](NC(=O)[C@H](C)N)C(=O)N[C@H]1CSSC[C@@H](C(=O)N[C@H](C(=O)N2CCC[C@H]2C(=O)N[C@@H](CC(=O)O)C(N)=O)[C@@H](C)CC)N(C)C(=O)[C@H]([C@@H](C)CC)NC(=O)[C@@H]2CCCN2C(=O)[C@@H]2CCCN2C(=O)[C@H](Cc2cc(F)ccc2F)NC(=O)[C@H](CO)NC(=O)[C@H](CCCNC(=N)N)NC(=O)[C@H](CO)NC1=O) [AIC+SRS-((2,5-Difluoro)F)-PPI-((N-Me)C)+IPD-NH2]
4 | 19 | 7.3 | [dA]ICSRS[X12]PPI[Pen]IP-NH2 (disulfide 3-11; N-terminus assumed; SMILES CC[C@H](C)[C@H](NC(=O)[C@@H](C)N)C(=O)N[C@H]1CSSC(C)(C)[C@@H](C(=O)N[C@H](C(=O)N2CCC[C@H]2C(N)=O)[C@@H](C)CC)NC(=O)[C@H]([C@@H](C)CC)NC(=O)[C@@H]2CCCN2C(=O)[C@@H]2CCCN2C(=O)[C@H](CSC(F)(F)F)NC(=O)[C@H](CO)NC(=O)[C@H](CCCNC(=N)N)NC(=O)[C@H](CO)NC1=O) [aIC+SRS-((S)-(trifluoromethyl)-L-cysteine)-PPI-(Pen)+IP-NH2]
5 | 400 | 6.9 | AICSRSLP[Oic]ICIPD-NH2 (disulfide 3-11; N-terminus assumed; SMILES CC[C@H](C)[C@H](NC(=O)[C@H](C)N)C(=O)N[C@H]1CSSC[C@@H](C(=O)N[C@H](C(=O)N2CCC[C@H]2C(=O)N[C@@H](CC(=O)O)C(N)=O)[C@@H](C)CC)NC(=O)[C@H]([C@@H](C)CC)NC(=O)[C@@H]2C[C@@H]3CCCC[C@@H]3N2C(=O)[C@@H]2CCCN2C(=O)[C@H](CC(C)C)NC(=O)[C@H](CO)NC(=O)[C@H](CCCNC(=N)N)NC(=O)[C@H](CO)NC1=O) [AIC+SRSLP-(Oic)-IC+IPD-NH2]
6 | 190 | 7.2 | AICSRS[tBuAla]P[Oic]I[NMeC]IPD-OH (disulfide 3-11; N-terminus assumed; SMILES CC[C@H](C)[C@H](NC(=O)[C@H](C)N)C(=O)N[C@H]1CSSC[C@@H](C(=O)N[C@H](C(=O)N2CCC[C@H]2C(=O)N[C@@H](CC(=O)O)C(=O)O)[C@@H](C)CC)N(C)C(=O)[C@H]([C@@H](C)CC)NC(=O)[C@@H]2C[C@@H]3CCCC[C@@H]3N2C(=O)[C@@H]2CCCN2C(=O)[C@H](CC(C)(C)C)NC(=O)[C@H](CO)NC(=O)[C@H](CCCNC(=N)N)NC(=O)[C@H](CO)NC1=O) [AIC+SRS-((tBu)A)-P-(Oic)-I-((N-Me)C)+IPD-OH]
7 | 120 | 6.6 | WICSRS[tBuAla]PPI[NMeC]I-NH2 (disulfide 3-11; N-terminus assumed; SMILES CC[C@H](C)[C@H](NC(=O)[C@@H]1CSSC[C@H](NC(=O)[C@@H](NC(=O)[C@@H](N)Cc2c[nH]c3ccccc23)[C@@H](C)CC)C(=O)N[C@@H](CO)C(=O)N[C@@H](CCCNC(=N)N)C(=O)N[C@@H](CO)C(=O)N[C@@H](CC(C)(C)C)C(=O)N2CCC[C@H]2C(=O)N2CCC[C@H]2C(=O)N[C@@H]([C@@H](C)CC)C(=O)N1C)C(N)=O) [WIC+SRS-((tBu)A)-PPI-((N-Me)C)+I-NH2]
8 | 260 | 7.4 | AICSRS[tBuAla]P[Oic]ICIPD-NH2 (disulfide 3-11; N-terminus assumed; SMILES CC[C@H](C)[C@H](NC(=O)[C@H](C)N)C(=O)N[C@H]1CSSC[C@@H](C(=O)N[C@H](C(=O)N2CCC[C@H]2C(=O)N[C@@H](CC(=O)O)C(N)=O)[C@@H](C)CC)NC(=O)[C@H]([C@@H](C)CC)NC(=O)[C@@H]2C[C@@H]3CCCC[C@@H]3N2C(=O)[C@@H]2CCCN2C(=O)[C@H](CC(C)(C)C)NC(=O)[C@H](CO)NC(=O)[C@H](CCCNC(=N)N)NC(=O)[C@H](CO)NC1=O) [AIC+SRS-((tBu)A)-P-(Oic)-I-C+IPD-NH2]
9 | 140 | 6.5 | AICSRSLPP[Chg]CIPD-OH (disulfide 3-11; N-terminus assumed; SMILES CC[C@H](C)[C@H](NC(=O)[C@H](C)N)C(=O)N[C@H]1CSSC[C@@H](C(=O)N[C@H](C(=O)N2CCC[C@H]2C(=O)N[C@@H](CC(=O)O)C(=O)O)[C@@H](C)CC)NC(=O)[C@H](C2CCCCC2)NC(=O)[C@@H]2CCCN2C(=O)[C@@H]2CCCN2C(=O)[C@H](CC(C)C)NC(=O)[C@H](CO)NC(=O)[C@H](CCCNC(=N)N)NC(=O)[C@H](CO)NC1=O) [AIC+SRSLPP-(Chg)-C+IPD-OH]

The remaining lines, values behind:

Row | Binder | human MASP2 IC50 [1] [nM] | human MASP1 IC50 [2] [nM]
10 | [Abu]ICSRSLPPICIPD-NH2 (disulfide 3-11; N-terminus assumed; SMILES CC[C@H](N)C(=O)N[C@H](C(=O)N[C@H]1CSSC[C@@H](C(=O)N[C@H](C(=O)N2CCC[C@H]2C(=O)N[C@@H](CC(=O)O)C(N)=O)[C@@H](C)CC)NC(=O)[C@H]([C@@H](C)CC)NC(=O)[C@@H]2CCCN2C(=O)[C@@H]2CCCN2C(=O)[C@H](CC(C)C)NC(=O)[C@H](CO)NC(=O)[C@H](CCCNC(=N)N)NC(=O)[C@H](CO)NC1=O)[C@@H](C)CC) [(Abu)-IC+SRSLPPIC+IPD-NH2] | 300 | 7.2
11 | {2‑(3-Pyridyl)acetyl}-ICSRS[tBuAla]PPI[Pen]IP-NH2 (disulfide 2-10) [(2-(3-Pyridyl)acetic acid)-IC+SRS-((tBu)A)-PPI-(Pen)+IP-NH2] | 8.5 | 7
12 | [2‑(Cyclohexylamino)acetyl]ICSRS[tBuAla]PPI[Pen]IPD-NH2 (disulfide 3-11) [(2-(Cyclohexylamino)acetyl)-IC+SRS-((tBu)A)-PPI-(Pen)+IPD-NH2] | 200 | 7.1
13 | [3Amb]ICSRS[tBuAla]PP[Pen]IP-NH2 (disulfide 3-10; N-terminus assumed; SMILES CC[C@H](C)[C@H](NC(=O)c1cccc(CN)c1)C(=O)N[C@H]1CSSC(C)(C)[C@@H](C(=O)N[C@H](C(=O)N2CCC[C@H]2C(N)=O)[C@@H](C)CC)NC(=O)[C@@H]2CCCN2C(=O)[C@@H]2CCCN2C(=O)[C@H](CC(C)(C)C)NC(=O)[C@H](CO)NC(=O)[C@H](CCCNC(=N)N)NC(=O)[C@H](CO)NC1=O) [(3-(Aminomethyl)benzoic acid)-IC+SRS-((tBu)A)-PP-(Pen)+IP-NH2] | 16 | 6.4
14 | [Orn]ICSRSLPP[Chg]CIPD-OH (disulfide 3-11; N-terminus assumed; SMILES CC[C@H](C)[C@H](NC(=O)[C@@H](N)CCCN)C(=O)N[C@H]1CSSC[C@@H](C(=O)N[C@H](C(=O)N2CCC[C@H]2C(=O)N[C@@H](CC(=O)O)C(=O)O)[C@@H](C)CC)NC(=O)[C@H](C2CCCCC2)NC(=O)[C@@H]2CCCN2C(=O)[C@@H]2CCCN2C(=O)[C@H](CC(C)C)NC(=O)[C@H](CO)NC(=O)[C@H](CCCNC(=N)N)NC(=O)[C@H](CO)NC1=O) [(Orn)-IC+SRSLPP-(Chg)-C+IPD-OH] | 49 | 6.9
15 | [Sar]ICSRSLPPI[NMeC]IPD-OH (disulfide 3-11; N-terminus assumed; SMILES CC[C@H](C)[C@H](NC(=O)CNC)C(=O)N[C@H]1CSSC[C@@H](C(=O)N[C@H](C(=O)N2CCC[C@H]2C(=O)N[C@@H](CC(=O)O)C(=O)O)[C@@H](C)CC)N(C)C(=O)[C@H]([C@@H](C)CC)NC(=O)[C@@H]2CCCN2C(=O)[C@@H]2CCCN2C(=O)[C@H](CC(C)C)NC(=O)[C@H](CO)NC(=O)[C@H](CCCNC(=N)N)NC(=O)[C@H](CO)NC1=O) [((N-Me)G)-IC+SRSLPPI-((N-Me)C)+IPD-OH] | 1700 | 7.3
16 | [Orn]ICSRSLPPICI-NH2 (disulfide 3-11; N-terminus assumed; SMILES CC[C@H](C)[C@H](NC(=O)[C@@H]1CSSC[C@H](NC(=O)[C@@H](NC(=O)[C@@H](N)CCCN)[C@@H](C)CC)C(=O)N[C@@H](CO)C(=O)N[C@@H](CCCNC(=N)N)C(=O)N[C@@H](CO)C(=O)N[C@@H](CC(C)C)C(=O)N2CCC[C@H]2C(=O)N2CCC[C@H]2C(=O)N[C@@H]([C@@H](C)CC)C(=O)N1)C(N)=O) [(Orn)-IC+SRSLPPIC+I-NH2] | 190 | 7.8
